We go through 1 molecule from article doi:10.1101/2020.07.15.204800 (bioRxiv, 2020).

For the assay, the target named is T1, PQLC2-FLAG wild type (human, UniProt Q6ZP29 1-291).
T1 sequence: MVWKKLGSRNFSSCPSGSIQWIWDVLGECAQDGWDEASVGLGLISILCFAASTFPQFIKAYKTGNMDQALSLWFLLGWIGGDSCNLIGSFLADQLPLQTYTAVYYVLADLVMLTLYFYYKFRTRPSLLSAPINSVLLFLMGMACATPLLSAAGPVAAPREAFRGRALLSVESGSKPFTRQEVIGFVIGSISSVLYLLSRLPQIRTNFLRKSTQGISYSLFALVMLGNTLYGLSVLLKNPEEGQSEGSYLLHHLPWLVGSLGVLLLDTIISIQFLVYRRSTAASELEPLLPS
The assay is described as follows: pull-down.

Take TGFFNMWGFG [GST-WDR41-PIP (GST fused to the 10 amino acid PIP sequence)]: the binding result was “binds”.
